From US20210009683A1

T1: CLEC-2 on washed mouse platelet (mouse) (UniProt Q9JL99)
T1 sequence (looked up): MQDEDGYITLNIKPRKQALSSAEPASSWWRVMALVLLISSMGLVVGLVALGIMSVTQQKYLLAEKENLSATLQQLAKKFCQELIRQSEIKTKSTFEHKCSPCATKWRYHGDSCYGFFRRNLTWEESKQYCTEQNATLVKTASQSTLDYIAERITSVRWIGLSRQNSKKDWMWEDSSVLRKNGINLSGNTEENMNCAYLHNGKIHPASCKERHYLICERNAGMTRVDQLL


Biological target: T1, CLEC-2 on washed mouse platelet (mouse)
Assay: cell-based or functional assay

Row | Binder | platelet aggregation-starting time (light transmittance, washed mouse platelet mixed with CHO cells) [min] | delay of the start of platelet aggregation against CHO/Aggrus-WT [min]
1 | wild-type human Aggrus expressed in CHO cells (CHO/Aggrus-WT) (ligand, UniProt Q86YL7 23-162, looked up) ASTGQPEDDTETTGLEGGVAMPGAEDDVVTPGTSEDRYKSGLTTLVATSVNSVTGIRIEDLPTSESTVHAQEQSPSATASNVATSHSTEKVDGDTQTTVEKDGLSTVTLVGIIVGVLLAIGFIGAIIVVVMRKMSGRYSP | 6 | –
2 | Aggrus-D48A expressed in CHO cells (CHO/Aggrus-D48A) (ligand, human, UniProt Q86YL7 23-162, looked up) ASTGQPEDDTETTGLEGGVAMPGAEADVVTPGTSEDRYKSGLTTLVATSVNSVTGIRIEDLPTSESTVHAQEQSPSATASNVATSHSTEKVDGDTQTTVEKDGLSTVTLVGIIVGVLLAIGFIGAIIVVVMRKMSGRYSP | 14 | 8
